# Experimental data taken from patent publication US20140087995A1 (published 2014).
# Numbered stars: 1 amine (or outer) side, 2 acyl side, 3 side chain; on linkers, the order of the positions; unused ones are H or OH. Bridge positions count the residues as written; N and C are the ends. Side chains are listed from the residue outwards. Ends that are not written are not given here. * marks the point of attachment. C20 diacid = O=C(O)CCCCCCCCCCCCCCCCCCC(=O)*; γGlu = O=C(O)[C@H](CCC(=O)[*:2])N[*:1]; AEEA = NCCOCCOCC(=O)O
# T1: human amylin receptor (amylin 3(a) receptor: human calcitonin receptor with RAMP-3) (human, UniProt P30988 25-474; O60896 24-148)
# T1 construct: whole, on cells; also called hAmylin-R; hAmylinR
# T1 sequence (looked up) 1: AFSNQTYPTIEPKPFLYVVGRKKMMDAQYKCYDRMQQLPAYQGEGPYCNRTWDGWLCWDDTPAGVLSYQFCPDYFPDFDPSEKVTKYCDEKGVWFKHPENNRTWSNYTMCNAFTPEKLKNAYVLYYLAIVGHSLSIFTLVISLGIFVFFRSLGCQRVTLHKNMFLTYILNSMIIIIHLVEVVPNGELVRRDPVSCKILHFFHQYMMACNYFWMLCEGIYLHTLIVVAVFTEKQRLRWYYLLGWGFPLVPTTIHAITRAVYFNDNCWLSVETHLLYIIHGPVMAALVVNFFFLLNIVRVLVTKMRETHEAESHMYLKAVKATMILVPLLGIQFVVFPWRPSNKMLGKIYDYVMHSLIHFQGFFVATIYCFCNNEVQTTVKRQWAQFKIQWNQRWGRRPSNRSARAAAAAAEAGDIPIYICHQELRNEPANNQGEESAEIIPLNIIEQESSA
# T1 sequence (looked up) 2: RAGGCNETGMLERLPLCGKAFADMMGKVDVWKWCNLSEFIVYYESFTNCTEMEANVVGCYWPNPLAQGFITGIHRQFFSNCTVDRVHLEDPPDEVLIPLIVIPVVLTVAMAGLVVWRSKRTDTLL
# B1: N^ε1-[2-[2-[2-[[(4S)-4-carboxy-4-(19-carboxynonadecanoylamino)butanoyl]amino]ethoxy]ethoxy]acetyl]-[His14,Arg17,Pro21,Pro27,Pro31]-h-amylin (peptide)
# peptide: K([AEEA-γGlu-C20 diacid])CNTATCATQRLAHFLRHSSPNFGAIPSSTPVGSNTY-NH2
# modifications: disulfide 2-7; N-terminus assumed
# SMILES: CC[C@H](C)[C@H](NC(=O)[C@H](C)NC(=O)CNC(=O)[C@H](Cc1ccccc1)NC(=O)[C@H](CC(N)=O)NC(=O)[C@@H]1CCCN1C(=O)[C@H](CO)NC(=O)[C@H](CO)NC(=O)[C@H](Cc1c[nH]cn1)NC(=O)[C@H](CCCNC(=N)N)NC(=O)[C@H](CC(C)C)NC(=O)[C@H](Cc1ccccc1)NC(=O)[C@H](Cc1c[nH]cn1)NC(=O)[C@H](C)NC(=O)[C@H](CC(C)C)NC(=O)[C@H](CCCNC(=N)N)NC(=O)[C@H](CCC(N)=O)NC(=O)[C@@H](NC(=O)[C@H](C)NC(=O)[C@@H]1CSSC[C@H](NC(=O)[C@@H](N)CCCCNC(=O)COCCOCCNC(=O)CC[C@H](NC(=O)CCCCCCCCCCCCCCCCCCC(=O)O)C(=O)O)C(=O)N[C@@H](CC(N)=O)C(=O)N[C@@H]([C@@H](C)O)C(=O)N[C@@H](C)C(=O)N[C@@H]([C@@H](C)O)C(=O)N1)[C@@H](C)O)C(=O)N1CCC[C@H]1C(=O)N[C@@H](CO)C(=O)N[C@@H](CO)C(=O)N[C@H](C(=O)N1CCC[C@H]1C(=O)N[C@H](C(=O)NCC(=O)N[C@@H](CO)C(=O)N[C@@H](CC(N)=O)C(=O)N[C@H](C(=O)N[C@@H](Cc1ccc(O)cc1)C(N)=O)[C@@H](C)O)C(C)C)[C@@H](C)O
# notes: also called 61; compound 61
# B2: N^ε1-[2-[2-[2-[[(4S)-4-carboxy-4-(19-carboxynonadecanoylamino)butanoyl]amino]ethoxy]ethoxy]acetyl]-[His14,Arg17,Pro21,Pro27,Pro34]-h-amylin (peptide)
# peptide: K([AEEA-γGlu-C20 diacid])CNTATCATQRLAHFLRHSSPNFGAIPSSTNVGPNTY-NH2
# modifications: disulfide 2-7; N-terminus assumed
# SMILES: CC[C@H](C)[C@H](NC(=O)[C@H](C)NC(=O)CNC(=O)[C@H](Cc1ccccc1)NC(=O)[C@H](CC(N)=O)NC(=O)[C@@H]1CCCN1C(=O)[C@H](CO)NC(=O)[C@H](CO)NC(=O)[C@H](Cc1c[nH]cn1)NC(=O)[C@H](CCCNC(=N)N)NC(=O)[C@H](CC(C)C)NC(=O)[C@H](Cc1ccccc1)NC(=O)[C@H](Cc1c[nH]cn1)NC(=O)[C@H](C)NC(=O)[C@H](CC(C)C)NC(=O)[C@H](CCCNC(=N)N)NC(=O)[C@H](CCC(N)=O)NC(=O)[C@@H](NC(=O)[C@H](C)NC(=O)[C@@H]1CSSC[C@H](NC(=O)[C@@H](N)CCCCNC(=O)COCCOCCNC(=O)CC[C@H](NC(=O)CCCCCCCCCCCCCCCCCCC(=O)O)C(=O)O)C(=O)N[C@@H](CC(N)=O)C(=O)N[C@@H]([C@@H](C)O)C(=O)N[C@@H](C)C(=O)N[C@@H]([C@@H](C)O)C(=O)N1)[C@@H](C)O)C(=O)N1CCC[C@H]1C(=O)N[C@@H](CO)C(=O)N[C@@H](CO)C(=O)N[C@H](C(=O)N[C@@H](CC(N)=O)C(=O)N[C@H](C(=O)NCC(=O)N1CCC[C@H]1C(=O)N[C@@H](CC(N)=O)C(=O)N[C@H](C(=O)N[C@@H](Cc1ccc(O)cc1)C(N)=O)[C@@H](C)O)C(C)C)[C@@H](C)O
# notes: also called 68; compound 68
# B3: N^ε1-[2-[2-[2-[[(4S)-4-carboxy-4-(19-carboxynonadecanoylamino)butanoyl]amino]ethoxy]ethoxy]acetyl]-[Thr14,Arg17,Pro21,Pro27,Pro31]-h-amylin (peptide)
# peptide: K([AEEA-γGlu-C20 diacid])CNTATCATQRLATFLRHSSPNFGAIPSSTPVGSNTY-NH2
# modifications: disulfide 2-7; N-terminus assumed
# SMILES: CC[C@H](C)[C@H](NC(=O)[C@H](C)NC(=O)CNC(=O)[C@H](Cc1ccccc1)NC(=O)[C@H](CC(N)=O)NC(=O)[C@@H]1CCCN1C(=O)[C@H](CO)NC(=O)[C@H](CO)NC(=O)[C@H](Cc1c[nH]cn1)NC(=O)[C@H](CCCNC(=N)N)NC(=O)[C@H](CC(C)C)NC(=O)[C@H](Cc1ccccc1)NC(=O)[C@@H](NC(=O)[C@H](C)NC(=O)[C@H](CC(C)C)NC(=O)[C@H](CCCNC(=N)N)NC(=O)[C@H](CCC(N)=O)NC(=O)[C@@H](NC(=O)[C@H](C)NC(=O)[C@@H]1CSSC[C@H](NC(=O)[C@@H](N)CCCCNC(=O)COCCOCCNC(=O)CC[C@H](NC(=O)CCCCCCCCCCCCCCCCCCC(=O)O)C(=O)O)C(=O)N[C@@H](CC(N)=O)C(=O)N[C@@H]([C@@H](C)O)C(=O)N[C@@H](C)C(=O)N[C@@H]([C@@H](C)O)C(=O)N1)[C@@H](C)O)[C@@H](C)O)C(=O)N1CCC[C@H]1C(=O)N[C@@H](CO)C(=O)N[C@@H](CO)C(=O)N[C@H](C(=O)N1CCC[C@H]1C(=O)N[C@H](C(=O)NCC(=O)N[C@@H](CO)C(=O)N[C@@H](CC(N)=O)C(=O)N[C@H](C(=O)N[C@@H](Cc1ccc(O)cc1)C(N)=O)[C@@H](C)O)C(C)C)[C@@H](C)O
# notes: also called 75; compound 75
# B4: N^ε1-[2-[2-[2-[[(4S)-4-carboxy-4-(19-carboxynonadecanoylamino)butanoyl]amino]ethoxy]ethoxy]acetyl]-[His14,Arg17,Pro21,Pro27]-h-amylin (peptide)
# peptide: K([AEEA-γGlu-C20 diacid])CNTATCATQRLAHFLRHSSPNFGAIPSSTNVGSNTY-NH2
# modifications: disulfide 2-7; N-terminus assumed
# SMILES: CC[C@H](C)[C@H](NC(=O)[C@H](C)NC(=O)CNC(=O)[C@H](Cc1ccccc1)NC(=O)[C@H](CC(N)=O)NC(=O)[C@@H]1CCCN1C(=O)[C@H](CO)NC(=O)[C@H](CO)NC(=O)[C@H](Cc1c[nH]cn1)NC(=O)[C@H](CCCNC(=N)N)NC(=O)[C@H](CC(C)C)NC(=O)[C@H](Cc1ccccc1)NC(=O)[C@H](Cc1c[nH]cn1)NC(=O)[C@H](C)NC(=O)[C@H](CC(C)C)NC(=O)[C@H](CCCNC(=N)N)NC(=O)[C@H](CCC(N)=O)NC(=O)[C@@H](NC(=O)[C@H](C)NC(=O)[C@@H]1CSSC[C@H](NC(=O)[C@@H](N)CCCCNC(=O)COCCOCCNC(=O)CC[C@H](NC(=O)CCCCCCCCCCCCCCCCCCC(=O)O)C(=O)O)C(=O)N[C@@H](CC(N)=O)C(=O)N[C@@H]([C@@H](C)O)C(=O)N[C@@H](C)C(=O)N[C@@H]([C@@H](C)O)C(=O)N1)[C@@H](C)O)C(=O)N1CCC[C@H]1C(=O)N[C@@H](CO)C(=O)N[C@@H](CO)C(=O)N[C@H](C(=O)N[C@@H](CC(N)=O)C(=O)N[C@H](C(=O)NCC(=O)N[C@@H](CO)C(=O)N[C@@H](CC(N)=O)C(=O)N[C@H](C(=O)N[C@@H](Cc1ccc(O)cc1)C(N)=O)[C@@H](C)O)C(C)C)[C@@H](C)O
# notes: also called 69; compound 69
# B5: N^ε1-[2-[2-[2-[[(4S)-4-carboxy-4-(19-carboxynonadecanoylamino)butanoyl]amino]ethoxy]ethoxy]acetyl]-[Ser14,Arg17,Pro21,Pro27,Pro31]-h-amylin (peptide)
# peptide: K([AEEA-γGlu-C20 diacid])CNTATCATQRLASFLRHSSPNFGAIPSSTPVGSNTY-NH2
# modifications: disulfide 2-7; N-terminus assumed
# SMILES: CC[C@H](C)[C@H](NC(=O)[C@H](C)NC(=O)CNC(=O)[C@H](Cc1ccccc1)NC(=O)[C@H](CC(N)=O)NC(=O)[C@@H]1CCCN1C(=O)[C@H](CO)NC(=O)[C@H](CO)NC(=O)[C@H](Cc1c[nH]cn1)NC(=O)[C@H](CCCNC(=N)N)NC(=O)[C@H](CC(C)C)NC(=O)[C@H](Cc1ccccc1)NC(=O)[C@H](CO)NC(=O)[C@H](C)NC(=O)[C@H](CC(C)C)NC(=O)[C@H](CCCNC(=N)N)NC(=O)[C@H](CCC(N)=O)NC(=O)[C@@H](NC(=O)[C@H](C)NC(=O)[C@@H]1CSSC[C@H](NC(=O)[C@@H](N)CCCCNC(=O)COCCOCCNC(=O)CC[C@H](NC(=O)CCCCCCCCCCCCCCCCCCC(=O)O)C(=O)O)C(=O)N[C@@H](CC(N)=O)C(=O)N[C@@H]([C@@H](C)O)C(=O)N[C@@H](C)C(=O)N[C@@H]([C@@H](C)O)C(=O)N1)[C@@H](C)O)C(=O)N1CCC[C@H]1C(=O)N[C@@H](CO)C(=O)N[C@@H](CO)C(=O)N[C@H](C(=O)N1CCC[C@H]1C(=O)N[C@H](C(=O)NCC(=O)N[C@@H](CO)C(=O)N[C@@H](CC(N)=O)C(=O)N[C@H](C(=O)N[C@@H](Cc1ccc(O)cc1)C(N)=O)[C@@H](C)O)C(C)C)[C@@H](C)O
# notes: also called 73; compound 73
# B6: N^ε1-[2-[2-[2-[[(4S)-4-carboxy-4-(19-carboxynonadecanoylamino)butanoyl]amino]ethoxy]ethoxy]acetyl]-[Lys14,Arg17,Pro21,Pro27,Pro31]-h-amylin (peptide)
# peptide: K([AEEA-γGlu-C20 diacid])CNTATCATQRLAKFLRHSSPNFGAIPSSTPVGSNTY-NH2
# modifications: disulfide 2-7; N-terminus assumed
# SMILES: CC[C@H](C)[C@H](NC(=O)[C@H](C)NC(=O)CNC(=O)[C@H](Cc1ccccc1)NC(=O)[C@H](CC(N)=O)NC(=O)[C@@H]1CCCN1C(=O)[C@H](CO)NC(=O)[C@H](CO)NC(=O)[C@H](Cc1c[nH]cn1)NC(=O)[C@H](CCCNC(=N)N)NC(=O)[C@H](CC(C)C)NC(=O)[C@H](Cc1ccccc1)NC(=O)[C@H](CCCCN)NC(=O)[C@H](C)NC(=O)[C@H](CC(C)C)NC(=O)[C@H](CCCNC(=N)N)NC(=O)[C@H](CCC(N)=O)NC(=O)[C@@H](NC(=O)[C@H](C)NC(=O)[C@@H]1CSSC[C@H](NC(=O)[C@@H](N)CCCCNC(=O)COCCOCCNC(=O)CC[C@H](NC(=O)CCCCCCCCCCCCCCCCCCC(=O)O)C(=O)O)C(=O)N[C@@H](CC(N)=O)C(=O)N[C@@H]([C@@H](C)O)C(=O)N[C@@H](C)C(=O)N[C@@H]([C@@H](C)O)C(=O)N1)[C@@H](C)O)C(=O)N1CCC[C@H]1C(=O)N[C@@H](CO)C(=O)N[C@@H](CO)C(=O)N[C@H](C(=O)N1CCC[C@H]1C(=O)N[C@H](C(=O)NCC(=O)N[C@@H](CO)C(=O)N[C@@H](CC(N)=O)C(=O)N[C@H](C(=O)N[C@@H](Cc1ccc(O)cc1)C(N)=O)[C@@H](C)O)C(C)C)[C@@H](C)O
# notes: also called 74; compound 74
# Target: T1, human amylin receptor (amylin 3(a) …)
# Assay: SPA displacement of 125I-rat amylin, hAmylin 3(a) receptor membranes
# Summary of the method: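 SPA beads with BHK Amylin 3(a)/CRE-luc cell membranes (35 ng/μL final) in 50 mM Hepes pH 7.4, 1 mM CaCl2, 5 mM MgCl₂, 0.1% OA, 0.02% Tween20.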
row,IC50,Binder
1,0.122 nM,B1
2,0.088 nM,B2
3,0.666 nM,B3
4,0.133 nM,B4
5,0.104 nM,B5
6,0.791 nM,B6
